Reference: article PMC12120766, “Paclitaxel/Luteolin Coloaded Dual‐Functional Liposomes for Esophageal Cancer Therapy”

What was measured:
CTNNA1 (catenin alpha 1) [1] = target: T1, CTNNA1 (catenin alpha 1) (UniProt P35221 2-906); assay: MST; MST: 50 nM labeled CTNNA1 in 10 mM PBS pH 7.4, EA2 0.00153-50 uM in 10 mM PBST (0.05% Tween-20) pH 7.4; temperature not stated; conditions: tags: RED-NHS dye label; predicted mFold secondary structure
CTNNA1 (catenin alpha 1) [2] = target: T1, CTNNA1 (catenin alpha 1); assay: MST; no antibody (control of the antibody competition); MST: 50 nM labeled CTNNA1 in 10 mM PBS pH 7.4, EA2 0.00153-50 uM in 10 mM PBST (0.05% Tween-20) pH 7.4; temperature not stated; conditions: tags: RED-NHS dye label; predicted mFold secondary structure

T1 sequence (P35221 2-906): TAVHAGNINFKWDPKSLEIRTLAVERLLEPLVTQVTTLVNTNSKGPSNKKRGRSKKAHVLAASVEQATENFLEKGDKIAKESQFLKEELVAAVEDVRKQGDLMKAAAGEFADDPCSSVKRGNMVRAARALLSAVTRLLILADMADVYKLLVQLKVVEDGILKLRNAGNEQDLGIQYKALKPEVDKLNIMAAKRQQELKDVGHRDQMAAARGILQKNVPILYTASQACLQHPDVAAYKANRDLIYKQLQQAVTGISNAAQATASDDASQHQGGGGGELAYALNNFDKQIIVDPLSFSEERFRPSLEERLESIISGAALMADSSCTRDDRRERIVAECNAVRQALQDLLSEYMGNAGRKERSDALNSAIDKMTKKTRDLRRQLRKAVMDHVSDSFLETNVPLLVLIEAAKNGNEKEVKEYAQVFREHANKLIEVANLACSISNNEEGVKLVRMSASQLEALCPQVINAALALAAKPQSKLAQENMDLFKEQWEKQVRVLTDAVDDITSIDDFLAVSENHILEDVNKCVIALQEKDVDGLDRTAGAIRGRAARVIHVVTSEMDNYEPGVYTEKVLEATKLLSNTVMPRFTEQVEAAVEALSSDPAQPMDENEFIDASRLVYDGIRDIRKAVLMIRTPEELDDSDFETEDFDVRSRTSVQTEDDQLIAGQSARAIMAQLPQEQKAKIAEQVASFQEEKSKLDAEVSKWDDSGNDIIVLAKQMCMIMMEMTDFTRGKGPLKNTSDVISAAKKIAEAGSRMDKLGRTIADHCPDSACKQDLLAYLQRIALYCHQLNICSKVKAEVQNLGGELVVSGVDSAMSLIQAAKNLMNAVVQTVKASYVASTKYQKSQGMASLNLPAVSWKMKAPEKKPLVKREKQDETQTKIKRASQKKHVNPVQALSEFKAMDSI

B1: EA2 (ssDNA)
DNA: AGCCTAAGCCTGTCCAGGAATCGTGCAGCCATAGCCTAAGCCTGTCCAGGAATCGATGGCTTAGTGGCACGATTAGGTC
Kd (CTNNA1 (catenin alpha 1) [1]): 2.07 ± 0.6 µM | Kd (CTNNA1 (catenin alpha 1) [2]): 2.3 ± 0.6 µM
